In article PMC6500386 (Biochemistry, 2019):

Target: the molecule itself
Experiment: SEC + native gel or EMSA

B1: Bmp3, FAD-dependent prolyl-S-Bmp1(CP) oxidase (enzyme, Marinomonas mediterranea MMB-1)
chain: MNFEWTHEQAELFEHALRFGKELSAPLQEDNGFPRDNWNALGDFGYFGLPIPEKYAKDGSGFDILTTIKIIEGLGQSCTDTGLLFAGAAHTFACSMPILEHGSETLKHQLLPDLATGRKIAANAISEASAGSDISNLATTAQKEGDYYVLNGGKSYVTNGSIADYYVVYATTNKKHGYLGQTAFVVPRNTPGISVGNDYHKLGLRSAPLNQVFFDNCTIHKDYALGREGQGARIFAASMDWERCCLFAIFVGAMQRDLNQCIEYANTRMQGDKTISRFQAVSHRIADMGVRLESARLMLYYAAWQKSQDVDNTKAVAMSKLAISEAFVQSGIDSIRVHGALGYLDEGRVNNSIKDALGSVLFSGTSDIQRELICNRLGLL
  stoichiometry N: 4
